Earlier results, collected in publication PMC2846219.
Where two headings read alike, the source gives them in different places.

How the values were obtained:
[1] = target: PCNA (Homo sapiens) (UniProt P12004)
[2] = target: PCNA (Homo sapiens) (UniProt P12004); remark: listed apart in the source

UniProt P12004, sequence (P12004 whole entry): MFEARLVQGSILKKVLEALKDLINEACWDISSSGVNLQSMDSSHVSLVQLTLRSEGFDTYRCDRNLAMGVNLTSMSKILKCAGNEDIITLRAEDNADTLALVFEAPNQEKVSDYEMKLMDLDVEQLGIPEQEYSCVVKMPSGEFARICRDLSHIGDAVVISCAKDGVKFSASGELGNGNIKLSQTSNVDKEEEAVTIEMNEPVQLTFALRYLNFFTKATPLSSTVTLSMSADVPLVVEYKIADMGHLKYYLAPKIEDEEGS

Kd [1] [nM]	Kd [2] [nM]	Substance
400		DNA polymerase eta PIP peptide PIP peptide (from UniProt Q9Y253)
	390	DNA polymerase iota PIP peptide PIP peptide (from UniProt Q9UNA4)
